Measured values reported in article PMC8627827 (Biomacromolecules, 2021).

Assay: Subcutaneous pharmacokinetics in streptozotocin-induced diabetic rats
Set-up: species or system Male Sprague Dawley rats
Conditions: rat, in vivo, sc, 10 U/kg

Substance: insulin-PEG20k: insulin covalently modified with 20 kDa mPEG via insulin-BCN, long-acting control
- Time to peak (serum insulin): 7 ± 1 h
